We go through 18 molecules from patent US20250304677A1 (VIB VZW, published 2025).

The koff is the first-order rate constant of dissociation.

The target in assay [1] is T1, human folate receptor alpha (hFRα), recombinant protein (human, UniProt P15328 25-233).
T1 construct: Bought recombinant proteins (His-tagged, or biotinylated via Avi-tag, e.g. AcroBiosystems FO1-H82E2, F01-H52H1); also called hFOLR1; huFOLR1
Description: BLI off-rate screening, crude periplasmic extract, biotinylated human FRα on streptavidin biosensors. As for the experimental part: (§1) Non-redundant clones were tested as crude periplasmatic extracts for binding analysis to human FRα and mouse FRα proteins captured on streptavidin biosensors in BLI. Variants P0150001 and P0150005 grown in the same 96-well plates were included as controls.

The target of assay [2] is T2, mouse folate receptor alpha (mFRα), recombinant protein (mouse, UniProt P35846 25-232).
T2 construct: Bought recombinant proteins (e.g. biotinylated, Acro Biosystems FO1-M82E9); also called mFOLR1; Ms FOLR1
Nature of the assay: BLI off-rate screening, crude periplasmic extract, biotinylated mouse FRα on streptavidin biosensors. As for the experimental part: as §1

For assay [3], the target named is T2, mouse folate receptor alpha (mFRα), …. Nature of the assay: BLI, biotinylated FOLR1 on streptavidin biosensors. The procedure:
(§2) The off-rates of the 2HFO9 ^{∘}FIG. 5A) and 2MFR67 ^{∘}FIG. 5B) mutants and the three wild-type ^{∘}WT) VHHs from family 3 were determined by biolayer interferometry ^{∘}BLI) on both mouse and human biotinylated folate receptor alpha ^{∘}FOLR1) that was immobilized on streptavidin biosensors. The off-rates were calculated using a 1:1 binding model. The fold change compared to the off-rates of the corresponding WT VHH is represented as the WT VHH off-rate divided by the off-rate of the mutant for the VHHs that show an improved off-rate compared to the WT. For the VHHs that show a worse off-rate compared to the WT, the fold change is represented as the negative value of the mutant VHH off-rate divided by the WT off-rate. The red bars represent the WT 2HFO9 and 2MFR67 in the upper and lower panel respectively.

Assay [4] deals with T1, human folate receptor alpha (hFRα), …. Description: BLI, biotinylated FOLR1 on streptavidin biosensors. The procedure: as §2
Assay [5] concerns the target T2, mouse folate receptor alpha (mFRα), …. Description: BLI. Put shortly:
(§3)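 Biotinylated human and mouse folate receptor alpha were immobilised on streptavidin biosensors, and off-rates were read by biolayer interferometry, with a 1:1 binding model applied in the calculation. Each variant's koff is expressed as a signed fold change relative to its wild-type VHH, positive as wild-type over variant for a better off-rate and negative as variant over wild-type for a worse one.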
On the technique in general: BLI is a label-free optical method that tracks binding on a fibre tip over time.

The target in assay [6] is T1, human folate receptor alpha (hFRα), …. Nature of the assay: BLI. Put shortly: as §3

T2 sequence (P35846 25-232 limits assumed): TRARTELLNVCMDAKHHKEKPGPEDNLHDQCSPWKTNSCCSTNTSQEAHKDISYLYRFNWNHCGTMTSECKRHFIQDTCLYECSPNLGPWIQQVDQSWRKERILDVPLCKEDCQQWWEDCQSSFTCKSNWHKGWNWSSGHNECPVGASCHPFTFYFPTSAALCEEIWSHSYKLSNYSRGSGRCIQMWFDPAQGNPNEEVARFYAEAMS
T1 sequence (P15328 25-233 limits assumed): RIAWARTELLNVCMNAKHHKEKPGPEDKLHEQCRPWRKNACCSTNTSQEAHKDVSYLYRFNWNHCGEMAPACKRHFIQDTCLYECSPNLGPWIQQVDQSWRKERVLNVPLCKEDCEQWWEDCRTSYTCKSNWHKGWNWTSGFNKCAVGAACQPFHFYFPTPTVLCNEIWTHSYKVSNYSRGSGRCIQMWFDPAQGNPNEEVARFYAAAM

B1: [D72E] (VHH)
VHH: EVQLVESGGGLVQPGGSLRLSCAASGSGFSGMIMGWYRQAPGKQRELVATVTSHGTTNYADSVKGRFTISRENAKNTVYLQMNSLRPEDTAVYYCNAHFPGIYWGKGTLVTVSS
notes: library clone tested as crude periplasmic extract; also called P01500001[D72E]
As for B1, the binding result in assay [1] and in assay [2] was “binds” throughout.

B2: 2MFR67 (E72D, D72N, S74A)-NT (VHH, not shown: small tags and cut ends)
VHH: QVQLQESGGGLVQAGGSLRLSCAASGSGFSGMIMGWYRQAPGKQRELVATVTSHGTTNYADSVKGRFTISRDNAKNTVLLQMNSLKPEDTAVYYCNAHFPGIYWGKGTQVTVSS
notes: Second substitution printed D72N; also called 2MFR67 triple mutant
For the molecule B2, in assay [3], the “Fold to 2HF042 (koff)” value worked out at 0.9, the “Fold to WT (koff)” value amounted to 2.6 and the koff turned out to be 0.00258 s⁻¹. In addition, in assay [4], the “Fold hu/ms (koff)” value stood at 7, the “Fold to WT (koff)” value is 2.9 and the off-rate (koff) was determined as 0.0173 s⁻¹.

B3: 2HFO9 (I51V,G54H)-NT (VHH)
VHH: QVQLQESGGGLVQAGGSLRLSCAASGSGFSGMIMGWYRQAPGKQRELVATVTSHGTTNYADSVKGRFTISRDNAKNTVLLQMNSLKPEDTAVYYCNAHFPGIYWGKGTQVTVSS
notes: not shown: neurotensin tridecapeptide (NT) and any linker or tags of the fusion
Turning to B3, in assay [3], the “Fold to 2HF042 (koff)” value is 0.9, the “Fold to WT (koff)” value is 0.3 and the koff worked out at 0.00236 s⁻¹. In addition, in assay [4], the “Fold hu/ms (koff)” value came out at 6, the “Fold to WT (koff)” value came out at 0.7 and the koff came to 0.0145 s⁻¹.

B4: P01500086: P0150001 with A24L, S27A, M32P (VHH)
VHH: EVQLVESGGGLVQPGGSLRLSCALSGAGFSGPIMGWYRQAPGKQRELVATVTSHGTTNYADSVKGRFTISRDNAKNTVYLQMNSLRPEDTAVYYCNAHFPGIYWGKGTLVTVSS
For B4, the koff in assay [5] amounted to 0.0035 s⁻¹; in assay [6], 0.024 s⁻¹. The entries for the “nm (Fold wt)” value in assay [5] and in assay [6] were 2.1 and 1.8, respectively.

B5: [N73G] (VHH)
VHH: EVQLVESGGGLVQPGGSLRLSCAASGSGFSGMIMGWYRQAPGKQRELVATVTSHGTTNYADSVKGRFTISRDGAKNTVYLQMNSLRPEDTAVYYCNAHFPGIYWGKGTLVTVSS
notes: library clone tested as crude periplasmic extract; also called P01500001[N73G]
As to B5, the binding result in assay [1] and in assay [2] was “binds” in each case.

B6: [G28P] (VHH)
VHH: EVQLVESGGGLVQPGGSLRLSCAASGSPFSGMIMGWYRQAPGKQRELVATVTSHGTTNYADSVKGRFTISRDNAKNTVYLQMNSLRPEDTAVYYCNAHFPGIYWGKGTLVTVSS
notes: library clone tested as crude periplasmic extract; also called P01500001[G28P]
Take B6: the binding result in assay [1] and in assay [2] was “binds” each time.

B7: [I33L] (VHH)
VHH: EVQLVESGGGLVQPGGSLRLSCAASGSGFSGMLMGWYRQAPGKQRELVATVTSHGTTNYADSVKGRFTISRDNAKNTVYLQMNSLRPEDTAVYYCNAHFPGIYWGKGTLVTVSS
notes: library clone tested as crude periplasmic extract; also called P01500001[I33L]
Consider B7, for which the binding result in assay [1] and in assay [2] was “binds” throughout.

B8: P01500090: P0150001 with A24V, S27L, M32P, N67E (VHH)
VHH: EVQLVESGGGLVQPGGSLRLSCAVSGLGFSGPIMGWYRQAPGKQRELVATVTSHGTTNYADSVKGRFTISRDNAKETVYLQMNSLRPEDTAVYYCNAHFPGIYWGKGTLVTVSS
With B8, the koff in assay [5] came to 0.00346 s⁻¹; in assay [6], 0.0259 s⁻¹. The “nm (Fold wt)” value in assay [5] amounted to 2.1; in assay [6], 2.

B9: [G28T] (VHH)
VHH: EVQLVESGGGLVQPGGSLRLSCAASGSTFSGMIMGWYRQAPGKQRELVATVTSHGTTNYADSVKGRFTISRDNAKNTVYLQMNSLRPEDTAVYYCNAHFPGIYWGKGTLVTVSS
notes: library clone tested as crude periplasmic extract; also called P01500001[G28T]
Turning to B9, the binding result in assay [1] and in assay [2] was “binds” throughout.

B10: P01500085: P0150001 with A24V, S27L, M32P (VHH)
VHH: EVQLVESGGGLVQPGGSLRLSCAVSGLGFSGPIMGWYRQAPGKQRELVATVTSHGTTNYADSVKGRFTISRDNAKNTVYLQMNSLRPEDTAVYYCNAHFPGIYWGKGTLVTVSS
For B10, the dissociation rate constant (koff) is 0.00176 s⁻¹ in assay [5] and 0.0159 s⁻¹ in assay [6]. In addition, the “nm (Fold wt)” value worked out at 1.1 in assay [5] and 1.2 in assay [6].

B11: 2HFO9(G54H)-NT (VHH)
VHH: QVQLQESGGGLVQAGGSLRLSCAASGSGFSGMIMGWYRQAPGKQRELVATITSHGTTNYADSVKGRFTISRDNAKNTVLLQMNSLKPEDTAVYYCNAHFPGIYWGKGTQVTVSS
notes: as for B3
In the case of B11, in assay [3], the “Fold to 2HF042 (koff)” value amounted to 1, the “Fold to WT (koff)” value came out at 0.3 and the koff stood at 0.00215 s⁻¹. Further, in assay [4], the “Fold hu/ms (koff)” value was 6, the “Fold to WT (koff)” value is 0.6 and the koff was found to be 0.0133 s⁻¹.

B12: P01500087: P0150001 with A24L, S27A, M32P, N67E (VHH)
VHH: EVQLVESGGGLVQPGGSLRLSCALSGAGFSGPIMGWYRQAPGKQRELVATVTSHGTTNYADSVKGRFTISRDNAKETVYLQMNSLRPEDTAVYYCNAHFPGIYWGKGTLVTVSS
As to B12, in assay [5], the koff came to 0.00376 s⁻¹ and the “nm (Fold wt)” value was found to be 2.3. In assay [6], the koff was 0.0269 s⁻¹ and the “nm (Fold wt)” value stood at 2.

B13: 2HFO9(I51V)-NT (VHH)
VHH: QVQLQESGGGLVQAGGSLRLSCAASGSGFSGMIMGWYRQAPGKQRELVATVTSGGTTNYADSVKGRFTISRDNAKNTVLLQMNSLKPEDTAVYYCNAHFPGIYWGKGTQVTVSS
notes: as for B3
Regarding B13, in assay [3], the “Fold to 2HF042 (koff)” value came to 0.2, the “Fold to WT (koff)” value was found to be 1.8 and the koff worked out at 0.012 s⁻¹. For the same molecule, in assay [4], the “Fold hu/ms (koff)” value was found to be 2, the “Fold to WT (koff)” value was 1 and the koff came out at 0.0205 s⁻¹.

B14: P01500088: P0150001 with S27T, M32I (VHH)
VHH: EVQLVESGGGLVQPGGSLRLSCAASGTGFSGIIMGWYRQAPGKQRELVATVTSHGTTNYADSVKGRFTISRDNAKNTVYLQMNSLRPEDTAVYYCNAHFPGIYWGKGTLVTVSS
For B14, in assay [5], the koff was 0.0154 s⁻¹ and the “nm (Fold wt)” value is 9.4. In addition, in assay [6], the off-rate constant (koff) stood at 0.381 s⁻¹ and the “nm (Fold wt)” value is 29.

B15: [S30I] (VHH)
VHH: EVQLVESGGGLVQPGGSLRLSCAASGSGFIGMIMGWYRQAPGKQRELVATVTSHGTTNYADSVKGRFTISRDNAKNTVYLQMNSLRPEDTAVYYCNAHFPGIYWGKGTLVTVSS
notes: library clone tested as crude periplasmic extract; also called P01500001[S30I]
As for B15, the binding result in assay [1] and in assay [2] was “binds” each time.

B16: [D72P] (VHH)
VHH: EVQLVESGGGLVQPGGSLRLSCAASGSGFSGMIMGWYRQAPGKQRELVATVTSHGTTNYADSVKGRFTISRPNAKNTVYLQMNSLRPEDTAVYYCNAHFPGIYWGKGTLVTVSS
notes: library clone tested as crude periplasmic extract; also called P01500001[D72P]
Turning to B16, the binding result in assay [1] and in assay [2] was “binds” in each case.

B17: P01500089: P0150001 with S27T, M32I, N76D (VHH)
VHH: EVQLVESGGGLVQPGGSLRLSCAASGTGFSGIIMGWYRQAPGKQRELVATVTSHGTTNYADSVKGRFTISRDNAKDTVYLQMNSLRPEDTAVYYCNAHFPGIYWGKGTLVTVSS
B17: in assay [5], the koff was 0.00614 s⁻¹ and the “nm (Fold wt)” value is 3.8. In assay [6], the koff was 0.0747 s⁻¹ and the “nm (Fold wt)” value turned out to be 5.7.

B18: [I33F] (VHH)
VHH: EVQLVESGGGLVQPGGSLRLSCAASGSGFSGMFMGWYRQAPGKQRELVATVTSHGTTNYADSVKGRFTISRDNAKNTVYLQMNSLRPEDTAVYYCNAHFPGIYWGKGTLVTVSS
notes: library clone tested as crude periplasmic extract; also called P01500001[I33F]
With B18, the binding result in assay [1] and in assay [2] was “binds” each time.
